In patent US20060116325A1, “Methods and compositions for inhibiting hiv-coreceptor interactions” (priority 2001, published 2006):

Tested on: HIV-1JRFL
Experiment: HIV-1JRFL infection of monocyte-derived macrophages, p24 ELISA
Assay type: cell-based
Settings: peptide 1 hr before virus, p24 after 72 hr; FIG. 3
Method: Monocyte-derived macrophages were treated with the designated concentrations of the indicated peptide for a period of 1 hr prior to addition of HIV-1JRFL. After 2 hr, cells were washed, and viral replication was determined after 72 hr by p24 analysis. Results are representative of 4 independent experiments.
PBMCs were obtained from whole blood of normal donors and isolated by Ficoll-Paque Plus (Pharmacia Biotech, Piscataway, N.J.) density gradient centrifugation, and plated at a cell density of 2×10^6 cells/ml. Monocyte-derived macrophages (MDM) were generated from adherent human peripheral blood mononuclear cells by culture for 7 days with M-CSF (100 ng/ml). […] After 2 hr, cells were washed, and cultured for additional 48-72 hr, followed by analysis of HIV replication as determined by quantification of accumulated p24 in the supernatant. The production of p24 was determined by conventional sandwich ELISA, using ELISA plates pre-coated with capture anti-p24 antibodies provided by the AIDS Vaccine Program (SAIC Frederick, NCI-FCRDC, Frederick, Md.). The captured p24 antigen was detected using rabbit anti-HIV-1 anti-p24 antibody, and a secondary goat anti-rabbit IgG (peroxidase-labeled) antibody. The captured p24 protein was detected using a 3,3′,5,5′-tetramethylbenzidine and hydrogen peroxide detection system (KPL Laboratories, Gaithersburg, Md.). […]

B1: macrophage inflammatory protein-1β (protein)
chain: APMGSDPPTACCFSYTARKLPRNFVVDYYETSSLCSQPAVVFQTKRSKQVCADPSESWVQEYVYDLELN
- inhibition of HIV-1JRFL infection of monocyte-derived macrophages (p24): comparable inhibitory activities
